Like-named read-outs stand apart in the source and are kept apart here.
Columns and labels:
[1] = biological target: T1, Flag/His-tagged recombinant human DNMT1 protein (human, UniProt P26358 1-1616); test: co-IP
[2] = biological target: T1, Flag/His-tagged recombinant human DNMT1 …; test: co-IP; remark: listed apart in the source

T1 sequence (P26358 whole entry): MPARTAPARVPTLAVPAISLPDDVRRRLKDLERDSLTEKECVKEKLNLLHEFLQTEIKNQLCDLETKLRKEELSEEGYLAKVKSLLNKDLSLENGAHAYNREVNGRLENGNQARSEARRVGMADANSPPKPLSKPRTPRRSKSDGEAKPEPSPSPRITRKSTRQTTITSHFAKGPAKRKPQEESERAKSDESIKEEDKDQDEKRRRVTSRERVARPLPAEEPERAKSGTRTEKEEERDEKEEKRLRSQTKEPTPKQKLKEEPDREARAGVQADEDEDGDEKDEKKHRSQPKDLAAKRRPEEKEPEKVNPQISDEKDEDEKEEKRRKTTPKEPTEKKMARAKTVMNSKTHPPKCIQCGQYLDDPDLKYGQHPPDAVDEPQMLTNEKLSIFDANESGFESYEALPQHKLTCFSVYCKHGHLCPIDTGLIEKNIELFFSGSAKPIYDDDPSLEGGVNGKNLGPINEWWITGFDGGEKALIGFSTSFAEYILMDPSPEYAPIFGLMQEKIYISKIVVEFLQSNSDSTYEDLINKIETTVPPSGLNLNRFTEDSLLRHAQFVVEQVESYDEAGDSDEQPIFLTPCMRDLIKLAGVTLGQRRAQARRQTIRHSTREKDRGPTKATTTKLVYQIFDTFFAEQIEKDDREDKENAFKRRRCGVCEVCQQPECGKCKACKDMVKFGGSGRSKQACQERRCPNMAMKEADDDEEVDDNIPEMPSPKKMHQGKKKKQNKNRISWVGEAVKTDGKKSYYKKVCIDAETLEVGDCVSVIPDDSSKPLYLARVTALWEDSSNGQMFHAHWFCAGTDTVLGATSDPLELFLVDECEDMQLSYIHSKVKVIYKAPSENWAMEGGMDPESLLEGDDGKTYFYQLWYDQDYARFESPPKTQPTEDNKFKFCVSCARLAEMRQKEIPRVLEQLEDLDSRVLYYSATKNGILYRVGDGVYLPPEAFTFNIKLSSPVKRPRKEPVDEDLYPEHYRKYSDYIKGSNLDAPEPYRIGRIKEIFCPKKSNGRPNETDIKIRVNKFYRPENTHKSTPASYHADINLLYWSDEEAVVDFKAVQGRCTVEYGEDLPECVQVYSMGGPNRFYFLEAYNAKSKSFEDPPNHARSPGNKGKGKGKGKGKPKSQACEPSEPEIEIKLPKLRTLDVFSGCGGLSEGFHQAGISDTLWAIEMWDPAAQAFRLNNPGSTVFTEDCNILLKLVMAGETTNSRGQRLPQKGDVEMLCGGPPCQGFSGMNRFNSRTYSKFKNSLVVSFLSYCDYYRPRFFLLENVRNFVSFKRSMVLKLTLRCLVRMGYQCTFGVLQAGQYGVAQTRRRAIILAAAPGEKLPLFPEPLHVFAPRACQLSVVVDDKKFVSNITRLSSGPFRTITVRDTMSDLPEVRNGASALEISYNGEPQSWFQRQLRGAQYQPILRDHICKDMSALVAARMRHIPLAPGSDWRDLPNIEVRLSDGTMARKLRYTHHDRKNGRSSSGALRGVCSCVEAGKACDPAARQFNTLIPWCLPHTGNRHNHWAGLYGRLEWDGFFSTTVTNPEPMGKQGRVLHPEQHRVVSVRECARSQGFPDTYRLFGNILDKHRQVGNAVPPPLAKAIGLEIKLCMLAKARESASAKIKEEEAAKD

binding result [1]	binding result [2]	Binder
binds		Human Recombinant GST-METTL14 (natural protein, UniProt Q9HCE5 1-456, looked up) MDSRLQEIRERQKLRRQLLAQQLGAESADSIGAVLNSKDEQREIAETRETCRASYDTSAPNAKRKYLDEGETDEDKMEEYKDELEMQQDEENLPYEEEIYKDSSTFLKGTQSLNPHNDYCQHFVDTGHRPQNFIRDVGLADRFEEYPKLRELIRLKDELIAKSNTPPMYLQADIEAFDIRELTPKFDVILLEPPLEEYYRETGITANEKCWTWDDIMKLEIDEIAAPRSFIFLWCGSGEGLDLGRVCLRKWGYRRCEDICWIKTNKNNPGKTKTLDPKAVFQRTKEHCLMGIKGTVKRSTDGDFIHANVDIDLIITEEPEIGNIEKPVEIFHIIEHFCLGRRRLHLFGRDSTIRPGWLTVGPTLTNSNYNAETYASYFSAPNSYLTGCTEEIERLRPKSPPPKSKSDRGGGAPRGGGRGGTSAGRGRERNRSNFRGERGGFRGGRGGAHRGGFPPR
	binds	Flag-tagged recombinant human METTL14 protein (natural protein, UniProt Q9HCE5 1-456, looked up) MDSRLQEIRERQKLRRQLLAQQLGAESADSIGAVLNSKDEQREIAETRETCRASYDTSAPNAKRKYLDEGETDEDKMEEYKDELEMQQDEENLPYEEEIYKDSSTFLKGTQSLNPHNDYCQHFVDTGHRPQNFIRDVGLADRFEEYPKLRELIRLKDELIAKSNTPPMYLQADIEAFDIRELTPKFDVILLEPPLEEYYRETGITANEKCWTWDDIMKLEIDEIAAPRSFIFLWCGSGEGLDLGRVCLRKWGYRRCEDICWIKTNKNNPGKTKTLDPKAVFQRTKEHCLMGIKGTVKRSTDGDFIHANVDIDLIITEEPEIGNIEKPVEIFHIIEHFCLGRRRLHLFGRDSTIRPGWLTVGPTLTNSNYNAETYASYFSAPNSYLTGCTEEIERLRPKSPPPKSKSDRGGGAPRGGGRGGTSAGRGRERNRSNFRGERGGFRGGRGGAHRGGFPPR

Reference: paper PMC12160003 (Cell, 2025)
